± gives the standard deviation of the averaged measurements.
Assays:
[1] = system: VchCAST RNA-guided transposition machinery (E. coli BL21(DE3) host, lacZ target); assay: relative integration efficiency (T-LR orientation) vs wild-type transposon end (log2 (normalized fold change)); transposon end mutated: right end (5 bp flank + 75 bp right end); higher = more efficient transposition
In short: (§1)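 A T7-driven effector plasmid encoding a CRISPR array, tniQ-cas8-cas7-cas6 and tnsA-tnsB-tnsC was co-transformed into E. coli BL21(DE3) together with a pUC57 mini-transposon donor holding barcoded pools of 1549 left-end or 1849 right-end variants. Transformants were plated with 0.1 mM IPTG at 37°C for 18 h. Illumina sequencing of PCR-amplified input plasmids and genomic integration junctions gave barcode abundances, and relative integration efficiency is their output/input fold change, normalised to reference barcodes and log-transformed.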

[2] = system: VchCAST RNA-guided transposition machinery (E. coli BL21(DE3) host, lacZ target); assay: relative integration efficiency (T-RL orientation) vs wild-type transposon end (log2 (normalized fold change)); transposon end mutated: right end (5 bp flank + 75 bp right end); higher = more efficient transposition
In short: as §1

Sequence | relative integration efficiency (log2) [1] | relative integration efficiency (log2) [2]
ACATTTGTGGATACAACCATAAAATGATAATTCACCCATCAATTGATAATTATCACACCCCAATTTAACTATAACGCTCTGATCATAGTCAGACCAACATTGCTACGACCCGTATTCGCACCGACAC | 0.328 ± 0.26 | -2.89 ± 0.38
ACATTTGTTGATACAACCATAAAATGATAATTACACCCATAAATTGATAATTATCACACCCATAAATTGATATTGCCTCTGATCATAGTCAGACCCAACCATAAAATGATAATTAAAGCACCGACAC | 0.192 ± 0.26 | 0.0847 ± 0.29
ACATTAGTTGATACAACCATAAAATGATAATTACACCCATAAATTGATCATTATCACACCCAATTTAACTATAACGCTCTGATCATAGTCAGACCAACATTGCTACGACCCGTATTCGCACCGACAC | -5.7 ± 0.14 | -7.38 ± 0.13
ACATTTGTTGATACAACCATAAAAAGATAATTACACCCATAAATTGATAATTGTGACACCGAATTTAACTATAACGCTCTGATCATAGTCAGACCAACATTGCTACGACCCGTATTCGCACCGACAC | 2.38 ± 0.082 | -1.15 ± 0.29
ACATTTGTTGATACAACCATAAAATGATAATTCACCCATAAATTGATAATTATCACACCCCAATTTAACTATAACGCTCTGATCATAGTCAGACCAACATTGCTACGACCCGTATTCGCACCGACAC | 1.7 ± 0.066 | -1.88 ± 0.17
ACATTTGTTGATACAACCATAAAATGATAATTACACCCATAAATTGATAATTATCACACCCATAAATTGATATTGCCTGAGATCATAGTCAGACCAACATTGCTACGACCCGTATTCGCACCGACAC | 0.172 ± 0.11 | 0.0616 ± 0.0024
ACATTTGTCGATACAACCATAAAACGATAATTACACCCATAAATTGATAATTATCACACCCAATTTAACTATAACGCTCTGATCATAGTCAGACCAACATTGCTACGACCCGTATTCGCACCGACAC | 2.07 ± 0.094 | -1.38 ± 0.25
ACATTTGTTGATACAACCATAAAGTGATATTTACAACCATAAGTTGATATTTTTCACAACCATAAGTTGATATTTTCTCTGATCATAGTCAGACCAACATTGCTACGACCCGTATTCGCACCGACAC | 0.284 ± 0.16 | 0.36 ± 0.12
ACATTTGTTGATACAACCATAAAATGATAATTACTCTGATCATAGTCACACCCATAAATTGATAATTATCACACCCATAAATTGATATTGCGACCAACATTGCTACGACCCGTATTCGCACCGACAC | -1.68 ± 0.39 | -4.9525 ± 0.00028
ACATTTGTTGATACAACCATAAAATGATAATTACACCCATAAATTGATAATTATCACACCCATAAATTGATATTGCCTCTTCATGTGAGCCCAGGCAGTCCTGGGCATCAATTTTCAGCACCGACAC | 0.0484 ± 0.15 | -0.116 ± 0.3
ACATTTGTTGATACACCCATAAATTGATAATTACACCCATAAATTGATATTGCTCACAACCATAAAGTGATATTTACTCTGATCATAGTCAGACCAACATTGCTACGACCCGTATTCGCACCGACAC | -0.114 ± 0.24 | -0.813 ± 0.18
ACATTTGTTGATACAACCATAAAATGATAATTACACCCATAAATTGATAATTCGCACACCCATAAATTGATATTGCCTCTGATCATAGTCAGACCAACATTGCTACGACCCGTATTCGCACCGACAC | 0.189 ± 0.39 | -0.551 ± 0.065
ACATTTGTTGATACCACCATAAAATGGTAATTACACCCCTAAATTGATAATTATCACACCCAATTTAACTATAACGCTCTGATCATAGTCAGACCAACATTGCTACGACCCGTATTCGCACCGACAC | -0.273 ± 0.24 | -3.42 ± 0.33
ACATTTGTTGATACAACCATAAAATGATAATTAGTGGGTATTTAACTATTAATTCAGTGGGTATTTAACTATAACGCTCTGATCATAGTCAGACCAACATTGCTACGACCCGTATTCGCACCGACAC | 1.17 ± 0.31 | -2.37 ± 0.12
ACATTTGTTGATACAACCATAAAATGATAATTACACCCATAAATTGATAATTATCCAACCCATAAATTGATATTGCCTCTGATCATAGTCAGACCAACATTGCTACGACCCGTATTCGCACCGACAC | 0.964 ± 0.12 | -0.362 ± 0.18
ACATTTGTTGATACAACCAGCCCCGTCGCCGGCACAAACGCCCGGTCGCCGGCGACACAAACGCCCGGTCGCGGTAAGAGGATCATAGTCAGACCAACATTGCTACGACCCGTATTCGCACCGACAC | -6.28 ± 0.75 | -7.56 ± 1.3
ACATTTGTTGATACAACCATAAAATCATCATTCACCCCTAAATTGATAATTATCACACCCACATTTAACTATAACGCTCTGATCATAGTCAGACCAACATTGCTACGACCCGTATTCGCACCGACAC | -1.37 ± 0.066 | -5.66 ± 0.14
ACATTTGTTGATACAACCATATATTGATATCTCCACCCATAAATTGATAATTATCACAACCATAAAATGATAATTACTCTGATCATAGTCAGACCAACATTGCTACGACCCGTATTCGCACCGACAC | -0.483 ± 0.35 | -0.253 ± 0.0069
ACATTTTGGTATACAACCATAAAATGATAATTACACCCATAAATTGATAATTATCACACCCATAAATTGATATTGCCTCTGATCATAGTCAGACCAACATTGCTACGACCCGTATTCGCACCGACAC | -6.61 ± 2.1 | -5.963 ± 0.038
ACATTTGTTCATACAACCATAAAACGATAATTACACCCATAAATTCATAATTATCACACCCAATTTAACTATAACGCTCTGATCATAGTCAGACCAACATTGCTACGACCCGTATTCGCACCGACAC | -0.844 ± 0.015 | -3 ± 0.52
ACATTTGTTGATACAACCATACCCTGATAATTACACCCATACCGTGATAATTATCACACCCATACCGTGATATTGCCTCTGATCATAGTCAGACCAACATTGCTACGACCCGTATTCGCACCGACAC | -2.37 ± 1 | -4.24 ± 0.2
ACATTTGTTCATACAACCCTAAAATGATAATTACACCCATAAATTCATCATTATCACACCCAATTTAACTATAACGCTCTGATCATAGTCAGACCAACATTGCTACGACCCGTATTCGCACCGACAC | -3.3 ± 0.36 | -5.84 ± 0.57
ACATTTGTTGATACAACCATAAAATGATAATTACACCCATAAATACTAAATTATCACACCCATAAATTGATATTGCCTCTGATCATAGTCAGACCAACATTGCTACGACCCGTATTCGCACCGACAC | -1.26 ± 0.24 | -1.56 ± 0.23
ACATTTGTTGATACAACCATAAAAGGATCATTACACCCATAAATTGATAATTATCCCACCCAATTTAACTATAACGCTCTGATCATAGTCAGACCAACATTGCTACGACCCGTATTCGCACCGACAC | 1.75 ± 0.057 | -1.69 ± 0.47
ACATTTGTTGATACAACCATAAAATGATAATTAATAATTATTTATAATCAGCAACTTAACCACACCCATAAATTGATAATTATCACACCCATAAATTGATATTGCCTCTGATCATAGTCAGACCAAC | -0.704 ± 0.18 | -4.19 ± 0.29
ACATTTGTTGATACAACCATAAAATGATAATTACACCCATAAATTGATAATTATCACACCCATAAATTGATATTGCCTCTGATCATAGTCAGCAACCATAAAATGATAATTAACCAAGCACCGACAC | -0.485 ± 0.41 | -0.283 ± 0.15
ACATTTGTTGATACAACCATATAATGATAATAACACCAATAAAATGATAATTATCACACCCAATTTAACTATAACGCTCTGATCATAGTCAGACCAACATTGCTACGACCCGTATTCGCACCGACAC | 1.887 ± 0.0053 | -1.09 ± 0.33
